Experimental findings from article PMC9588639 (Journal of thrombosis and haemostasis : JTH, 2022) are described below.

What all share (assay): BLI
In general terms: Biolayer interferometry detects binding as a change in optical thickness at a sensor tip.

Experiment [1] has as its target mouse GPIbα LBD (mLBD, residues 1-290) (mouse).
Experiment [2] has as its target human GPIbα LBD (mature protein residues 1-290) (human).
Experiment [3] deals with human GPIbα LBD (mature protein residues 1-290) W230L (human, UniProt P07359 17-306, W230L).
human GPIbα LBD (mature protein residues 1-290) W230L, sequence (P07359 17-306 W246L): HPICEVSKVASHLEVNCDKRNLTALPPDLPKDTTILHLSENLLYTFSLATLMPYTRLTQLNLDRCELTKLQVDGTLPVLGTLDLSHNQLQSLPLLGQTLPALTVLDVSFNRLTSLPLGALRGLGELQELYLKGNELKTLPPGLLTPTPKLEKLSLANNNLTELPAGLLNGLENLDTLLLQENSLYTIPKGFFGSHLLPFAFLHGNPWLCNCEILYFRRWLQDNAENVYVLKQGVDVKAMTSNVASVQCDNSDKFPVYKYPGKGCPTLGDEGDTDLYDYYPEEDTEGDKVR

mouse GPIbα LBD (mLBD, residues 1-290) (mouse), sequence (O35930 whole entry, the tested form may be a part): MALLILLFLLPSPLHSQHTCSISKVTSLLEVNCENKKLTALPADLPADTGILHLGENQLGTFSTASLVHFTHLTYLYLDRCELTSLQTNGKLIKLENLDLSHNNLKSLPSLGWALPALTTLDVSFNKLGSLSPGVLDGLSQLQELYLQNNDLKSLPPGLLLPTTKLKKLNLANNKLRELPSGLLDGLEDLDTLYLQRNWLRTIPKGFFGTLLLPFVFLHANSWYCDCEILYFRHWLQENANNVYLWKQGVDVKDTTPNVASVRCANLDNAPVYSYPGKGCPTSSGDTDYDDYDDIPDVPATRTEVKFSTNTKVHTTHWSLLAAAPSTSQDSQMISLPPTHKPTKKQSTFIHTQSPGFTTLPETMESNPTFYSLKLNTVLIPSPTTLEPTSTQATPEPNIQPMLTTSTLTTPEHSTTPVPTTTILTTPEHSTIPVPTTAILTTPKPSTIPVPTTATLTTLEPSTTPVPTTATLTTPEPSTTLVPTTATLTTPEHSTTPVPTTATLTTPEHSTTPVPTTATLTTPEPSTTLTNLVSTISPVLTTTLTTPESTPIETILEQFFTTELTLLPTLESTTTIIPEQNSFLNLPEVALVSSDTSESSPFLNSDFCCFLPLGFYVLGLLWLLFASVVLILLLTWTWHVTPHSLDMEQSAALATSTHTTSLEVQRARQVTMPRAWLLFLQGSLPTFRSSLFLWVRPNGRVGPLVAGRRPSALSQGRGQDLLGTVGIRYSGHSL

What is called Kd is the free concentration of one partner at which half of the binding sites on the other are occupied at equilibrium, for simple one-to-one binding. Take “mouse tAIM-A1 (containing VWF residues 1261-1472) (from UniProt Q8CIZ8 1261-1472) (domain or fragment)”: the Kd in experiment [1] came to 386 nM.

B1: recombinant mouse AIM-A1 protein (mouse VWF residues 1238-1493) (domain or fragment, UniProt Q8CIZ8 1238-1493, looked up)
chain: QEPGGLVAPPTDAPVSSTTPYVEDTPEPPLHNFYCSKLLDLVFLLDGSSMLSEAEFEVLKAFVVGMMERLHISQKRIRVAVVEYHDGSRAYLELKARKRPSELRRITSQIKYTGSQVASTSEVLKYTLFQIFGKIDRPEASHITLLLTASQEPPRMARNLVRYVQGLKKKKVIVIPVGIGPHASLKQIRLIEKQAPENKAFLLSGVDELEQRRDEIVSYLCDLAPEAPAPTQPPQVAHVTVSPGIAGISSPGPKRK
As to B1, the results for the Kd in experiment [2] and in experiment [1] were 515 nM and 1000 nM, respectively. Moreover, in experiment [3], the binding result is on record as “binds”.
